Reference: patent US20250074980A1 (BRIGHAM AND WOMEN S HOSPITAL, published 2025)
Substitutions are numbered along the chain they refer to. In names and notes the source's numbering stands.

T1: His-tagged CEACAM1 (human, UniProt P13688 35-428)
T1 construct: 45 kDa SPR analyte; also called CEACAM1-HIS; CEACAM1 analyte
T1 sequence: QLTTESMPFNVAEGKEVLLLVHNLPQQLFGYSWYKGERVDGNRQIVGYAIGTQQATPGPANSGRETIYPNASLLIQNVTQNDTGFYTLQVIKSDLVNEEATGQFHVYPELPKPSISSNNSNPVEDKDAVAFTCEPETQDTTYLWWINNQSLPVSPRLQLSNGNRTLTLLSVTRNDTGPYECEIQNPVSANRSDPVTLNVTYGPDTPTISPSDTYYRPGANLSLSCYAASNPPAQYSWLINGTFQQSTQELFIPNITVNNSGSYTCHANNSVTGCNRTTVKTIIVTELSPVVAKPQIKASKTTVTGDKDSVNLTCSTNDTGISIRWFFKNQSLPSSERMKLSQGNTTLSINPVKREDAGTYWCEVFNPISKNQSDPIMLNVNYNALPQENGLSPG

T2: CEACAM3 on transfected HeLa cells (human, UniProt P40198 35-252)
T2 construct: whole, on cells; also called HeLa-CEACAM3; HeLa C3
T2 sequence (looked up): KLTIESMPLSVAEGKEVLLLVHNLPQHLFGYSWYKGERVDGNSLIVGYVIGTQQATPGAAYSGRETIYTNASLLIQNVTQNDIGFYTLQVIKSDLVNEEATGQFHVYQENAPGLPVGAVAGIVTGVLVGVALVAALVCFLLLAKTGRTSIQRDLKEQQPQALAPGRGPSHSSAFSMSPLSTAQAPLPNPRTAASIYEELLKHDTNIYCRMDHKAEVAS

T3: CEACAM8 on transfected HeLa cells (human, UniProt P31997 35-320)
T3 construct: whole, on cells; also called HeLa-CEACAM8; HeLa C8
T3 sequence (looked up): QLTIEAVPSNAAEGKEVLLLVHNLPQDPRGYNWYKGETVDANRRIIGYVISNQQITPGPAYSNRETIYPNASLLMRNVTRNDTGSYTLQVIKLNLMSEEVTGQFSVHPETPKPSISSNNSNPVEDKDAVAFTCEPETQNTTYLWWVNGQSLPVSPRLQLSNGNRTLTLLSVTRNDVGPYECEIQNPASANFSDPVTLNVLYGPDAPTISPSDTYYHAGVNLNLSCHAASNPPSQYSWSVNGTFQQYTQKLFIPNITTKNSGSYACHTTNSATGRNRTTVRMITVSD

T4: CEACAM6 on transfected HeLa cells (human, UniProt P40199 35-320)
T4 construct: whole, on cells; also called HeLa-CEACAM6; HeLa C6
T4 sequence (looked up): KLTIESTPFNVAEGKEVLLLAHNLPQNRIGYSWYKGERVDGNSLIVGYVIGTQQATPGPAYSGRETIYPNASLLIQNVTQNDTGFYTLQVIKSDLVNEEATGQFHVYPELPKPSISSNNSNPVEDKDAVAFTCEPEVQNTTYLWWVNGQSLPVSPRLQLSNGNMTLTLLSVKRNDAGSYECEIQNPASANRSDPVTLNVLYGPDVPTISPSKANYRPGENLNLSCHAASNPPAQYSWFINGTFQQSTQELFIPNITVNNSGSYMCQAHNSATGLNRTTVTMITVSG

B1: VH3/Vκ6 (antibody, IgG4, V domains shown)
VH: EVQLLESGGGLVQPGGSLRLSCAASGFIFSSHGMSWVRQAPGKGLEWVATISSGGTYTYYADSVKGRFTISRDNSKNTLYLQMNSLRAEDTAMYYCARHDFDYDAAWFAYWGQGTLVTVSS
VL: DIQLTQSPSFLSASVGDRVTITCRANSSVSYMAWYQQKPGKAPKLLIYLTSNLQSGVPSRFSGSGSGTEFTLTISSLQPEDFATYYCQQWSSNPPTFGQGTKLEIK
notes: IgG4 (S241P), kappa
B2: VH4/Vκ6 (antibody, IgG4, V domains shown)
VH: B1 VH with A49S, M93V
VL: B1 VL
notes: IgG4 (S241P), kappa
B3: 8H3_9B3/CP08E05 (antibody, IgG4, V domains shown)
VH: EVQLLESGGGLVQPGGSLRLSCAASGFTFNAHAISWVRQAPGKGLEWVATISSGGTYTYYPDSVKGRFTISRDNSKNTLYLQMNSLKAEDTAMYYCARHDFDYFPYWFAHWGQGTLVTVSS
VL: EIVLTQSPATLSLSPGERATLSCRANSAVSYMYWYQQKPGQAPRPWIYLTSNRATGVPARFSGSGSGTDYTLTISSLEPEDFAVYYCQQWTTNPPTFGQGTKLEIK
notes: IgG4 (S241P), kappa
B4: VH1/Vκ1 (antibody, IgG4, V domains shown)
VH: B1 VH with A61P, R87K
VL: QIVLTQSPALLSLSPGERATMSCSANSSVSYMYWYRQKPGQAPKPWIYLTSNLASGVPARFSGSGSGTDYTLTISSLEAEDFATYYCQQWSSNPPTFGQGTKLEIK
notes: IgG4 (S241P), kappa
B5: 8H3_9B3/CP08F05 (antibody, IgG4, V domains shown)
VH: B3 VH
VL: B3 VL with T92S
notes: IgG4 (S241P), kappa
B6: CP09B03/CP08E05 (antibody, IgG4, V domains shown)
VH: B3 VH with F104D, P105A, Y106A, H110Y
VL: B3 VL
notes: IgG4 (S241P), kappa
B7: 8H3_9C2/CP08F05 (antibody, IgG4, V domains shown)
VH: B3 VH with G26E, N30S, A31D, I34M, D100G
VL: B3 VL with T92S
notes: IgG4 (S241P), kappa; also called 8H3_9C2/CPO08_F05
B8: 8H3_9B3/Vκ8 S29A (antibody, IgG4, V domains shown)
VH: B3 VH
VL: B3 VL with T91S, T92S
notes: IgG4 (S241P), kappa
B9: CP09C02/CP08F05 (antibody, IgG4, V domains shown)
VH: B1 VH with G26E, I28T, S31D, G33A, A61P, R87K, D100G
VL: B3 VL with T92S
notes: IgG4 (S241P), kappa

Experiments:
His-tagged CEACAM1 [1] = target: T1, His-tagged CEACAM1; assay: SPR single-cycle, IgG captured
Experimental: As an alternative approach to assess the binding of the 36 antibody combinations and the three control antibodies to CEACAM1, a kinetic analysis was performed on a Biacore T200 (serial no. 1909913) running Biacore T200 Evaluation Software V2.0.1 (Uppsala, Sweden). All experiments were run at 25° C. with HBS-P+ running buffer (pH 7.4) (GE Healthcare, cat. no. BR100671). All kinetic experiments were performed using His-tagged CEACAM1 as the analyte. For all experiments, antibodies were immobilized onto a Series S Protein A sensor chip surface. For kinetic experiments, the amount of immobilized/captured ligand was limited to avoid mass transfer effects at the surface of the chip with the surface ideally having an analyte binding level (Rₘₐₓ) of 50-150 RUs. Using a MW of 45 kDa for the CEACAM1 analyte, 150 kDa for the antibody ligand (estimated value for IgG), 50 RU for Rmax and the stoichiometry (Sm) as 2 due to the ability of each antibody to bind 2 target molecules, a target response level of ˜75 RUs was set for capture of all the sample antibodies.
Single cycle analysis of the 36 antibody combinations and the three control antibodies was performed on purified antibodies (Vκ1 to Vκ6 variants) or on the supernatants of the transiently transfected HEK EBNA cells (Vκ7 to Vκ12 variants). In some instances, where supernatant was not available, purified chimeric antibody VH0/Vκ0 was spiked into HEK EBNA culture medium to use as a positive control. Antibodies were diluted in HBS-P+ to a concentration of 1 μg/ml (as determined by an IgG quantitation ELISA). At the start of each cycle, antibodies were loaded onto Fc2, Fc3 and Fc4 of a protein A chip and IgG captured at a flow rate of 8 μl/min to give an RU of ˜75. The surface was then allowed to stabilize. Single cycle kinetic data was obtained at a flow rate of 50 μl/min to minimize any potential mass transfer effects. Multiple repeats of the chimeric antibody VH0/Vκ0 were performed to check the stability of the surface and analyte over the kinetic cycles. The signal from the reference channel Fc1 (no antibody) was subtracted from that of Fc2, Fc3 and Fc4 to correct for differences in non-specific binding to a reference surface. A 5 point 2-fold dilution range from 3.125 to 50 nM CEACAM1 without regeneration between each concentration was used.

His-tagged CEACAM1 [2] = target: T1, His-tagged CEACAM1; assay: SPR single-cycle, purified IgG captured
Procedure, shortened: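 On a Biacore T200, purified IgG was captured on a Series S Protein A chip, and His-tagged CEACAM1 was passed over it as the analyte in single-cycle kinetics surface plasmon resonance at 25° C in HBS-P+ (pH 7.4). Reference-channel and blank-run signals were subtracted before fitting kon, koff and Kd, with relative KD calculated against the parent antibody assayed in the same experiment.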

His-tagged CEACAM1 [3] = target: T1, His-tagged CEACAM1; assay: SPR single-cycle, supernatant IgG captured
Experimental: In order to assess the binding of the humanized, affinity matured reformatted lead IgGs, single-cycle kinetics analysis was performed on crude supernatants using a Biacore T200 running Biacore T200 Control Software V2.0.1 and Biacore T200 Evaluation Software V3.0. Antibodies were diluted in HBS-P+ to a final concentration of 0.5 μg/ml. At the start of each cycle, antibodies were loaded onto Fc2, Fc3 and Fc4 of the Protein A chip. IgGs were captured at a flow rate of 10 μl/min to give an immobilisation level (RL) of ˜100 RU (a level calculated to obtain a Rₘₐₓ of ˜50-150 RU once the analyte is bound). The surface was then allowed to stabilize. Single-cycle kinetics data was obtained with CEACAM1 as the analyte at a flow rate of 80 μl/min to minimize any potential mass transfer effects. Multiple repeats with the parent (VH1/Vκ8 S29A) antibody were performed to check the stability of the surface and analyte over the kinetic cycles. The signal from the reference channel Fc1 (no antibody) was subtracted from that of Fc2, Fc3 and Fc4 to correct for differences in non-specific binding to the reference surface. A three point, two-fold dilution range from 70 nM to 280 nM CEACAM1 without regeneration between each concentration was used. The signal from each antibody blank run (no CEACAM1) was subtracted to correct for differences in surface stability. The association phase for the three injections of increasing concentrations of CEACAM1 was monitored for 80 seconds each time and a single dissociation phase was measured for 150 seconds following the last injection of CEACAM1. Regeneration of the Protein A surface was conducted using two injections of 10 mM glycine-HCL pH 1.5 followed by a stabilization period of 250 seconds.

[4] = target: T2, CEACAM3 on transfected HeLa cells; assay: flow cytometry, transfected HeLa
Procedure, shortened: (§1)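 Binding selectivity was assessed by flow cytometry and is expressed as the staining of each HeLa transfectant, each stably carrying a single CEACAM family member. The cells were kept at 37° C, 5.0% CO₂ in DMEM containing 10% fetal bovine serum. Staining used the test antibody followed by a fluorochrome-conjugated isotype-specific secondary antibody, and DAPI marked viability.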

[5] = target: T3, CEACAM8 on transfected HeLa cells; assay: flow cytometry, transfected HeLa
Procedure, shortened: as §1

[6] = target: T4, CEACAM6 on transfected HeLa cells; assay: flow cytometry, HeLa-CEACAM6 transfectants, % positive cells
Experimental: Binding selectivity for CEACAM1 was tested for the 24 humanized antibody variants that bound to CEACAM1 (see Table 3), as well as the chimeric control antibody VH0/Vκ0, by flow cytometry on HeLa cells transfected with CEACAM1, 3, 5, 6 and 8. […] There was no evidence of any staining of the HeLa-CEACAM3 or HeLa-CEACAM8 transfectants. […] Due to its favorable affinity to and selectivity for CEACAM1 as well as its favorable expression level, VH1/Vκ8 was chosen as the framework for affinity maturation.

His-tagged CEACAM1 [7] = target: T1, His-tagged CEACAM1; assay: SPR single-cycle, supernatant IgG captured; remark: listed apart in the source
Procedure, shortened: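 His-tagged CEACAM1 served as analyte over Protein A-captured IgG in single-cycle surface plasmon resonance on a Biacore T200, performed at 25° C in HBS-P+ (pH 7.4). The IgG was taken from supernatants of transiently PEI-transfected HEK EBNA cells grown in 6-well plates and harvested 5-7 days later. Relative KD, alongside fitted Kon, koff and Kd, was referenced to the parent antibody run in the same experiment.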

Binder	Kd (His-tagged CEACAM1 [2])	koff (His-tagged CEACAM1 [2])	kon (His-tagged CEACAM1 [2])	relative KD to parent (His-tagged CEACAM1 [2])	Kd (His-tagged CEACAM1 [3])	koff (His-tagged CEACAM1 [3])	kon (His-tagged CEACAM1 [3])	relative KD to parent (His-tagged CEACAM1 [3])	further results
B1	–	–	–	–	–	–	–	–	binding result (His-tagged CEACAM1 [1]): no binding (tested: 50 nM)
B2	–	–	–	–	–	–	–	–	binding result (His-tagged CEACAM1 [1]): no binding (tested: 50 nM)
B3	0.069 µM	0.0065 s⁻¹	95000 M⁻¹ s⁻¹	6.9	0.077 µM	0.0072 s⁻¹	93000 M⁻¹ s⁻¹	7.3	–
B4	–	–	–	–	–	–	–	–	binding result [4]: no binding; binding result [5]: no binding; Kd (His-tagged CEACAM1 [1]): 0.085 µM; relative KD to VH0/Vκ0 (His-tagged CEACAM1 [1]): 2; binding result [6]: no binding
B5	0.059 µM	0.0056 s⁻¹	95000 M⁻¹ s⁻¹	8	0.07 µM	0.0063 s⁻¹	90000 M⁻¹ s⁻¹	8	–
B6	0.09 µM	0.0096 s⁻¹	110000 M⁻¹ s⁻¹	5.3	–	–	–	–	Kd (His-tagged CEACAM1 [7]): 0.097 µM; koff (His-tagged CEACAM1 [7]): 0.01 s⁻¹; kon (His-tagged CEACAM1 [7]): 110000 M⁻¹ s⁻¹; relative KD to parent (His-tagged CEACAM1 [7]): 5.7
B7	0.076 µM	0.0055 s⁻¹	73000 M⁻¹ s⁻¹	6.3	0.093 µM	0.0061 s⁻¹	66000 M⁻¹ s⁻¹	6	–
B8	0.067 µM	0.0062 s⁻¹	92000 M⁻¹ s⁻¹	7.1	0.077 µM	0.0069 s⁻¹	90000 M⁻¹ s⁻¹	7.2	–
B9	0.095 µM	0.01 s⁻¹	110000 M⁻¹ s⁻¹	5	–	–	–	–	Kd (His-tagged CEACAM1 [7]): 0.1 µM; koff (His-tagged CEACAM1 [7]): 0.011 s⁻¹; kon (His-tagged CEACAM1 [7]): 110000 M⁻¹ s⁻¹; relative KD to parent (His-tagged CEACAM1 [7]): 5.5
